Numbered stars: 1 amine (or outer) side, 2 acyl side, 3 side chain; on linkers, the order of the positions; unused ones are H or OH. Bridge positions count the residues as written; N and C are the ends. Square brackets hold non-standard residues; d marks the D form. Peptide text beside a SMILES is read from it. I, II: the chains in the order shown. * marks the point of attachment. NOTA‑1 = 1,4,7-triazacyclononane-N,N',N''-triacetic acid phenyl thiourea; X1 = O=C(O)CN1CCN(CC(=O)O)CC(Cc2ccc(NC(=S)*)cc2)N(CC(=O)O)CC1; Pro(trans-4-F) = O=C(O)[C@@H]1C[C@@H](F)CN1; X2 = O=C(CCOCCOCCC(=O)[*:2])[*:1]
B1: Compound 12a (peptide)
peptide: {CH2CO}-FNFEDQS[Pro(trans-4-F)]DTWQPCGGK(NOTA‑1)-NH2
modifications: thioether N-14
B2: Compound 2a (peptide)
peptide: {CH2CO}-FNFEDQSADTWQPCGGK(NOTA‑1)-NH2
modifications: thioether N-14
B3: Compound 1a (peptide)
peptide: {CH2CO}-FNFEDQSADTWQPCG-NH2
modifications: thioether N-14
SMILES: C[C@@H]1NC(=O)[C@H](CO)NC(=O)[C@H](CCC(N)=O)NC(=O)[C@H](CC(=O)O)NC(=O)[C@H](CCC(=O)O)NC(=O)[C@H](Cc2ccccc2)NC(=O)[C@H](CC(N)=O)NC(=O)[C@H](Cc2ccccc2)NC(=O)CSC[C@@H](C(=O)NCC(N)=O)NC(=O)[C@@H]2CCCN2C(=O)[C@H](CCC(N)=O)NC(=O)[C@H](Cc2c[nH]c3ccccc23)NC(=O)[C@H]([C@@H](C)O)NC(=O)[C@H](CC(=O)O)NC1=O

Assays:
[1] = biological target: Human Granzyme B (Homo sapiens, UniProt P10144); assay: Granzyme B biochemical inhibition assay (fluorescence); settings: 8 nM granzyme B; values below 8 nM reported as <8 nM
Human Granzyme B, sequence (P10144 21-247): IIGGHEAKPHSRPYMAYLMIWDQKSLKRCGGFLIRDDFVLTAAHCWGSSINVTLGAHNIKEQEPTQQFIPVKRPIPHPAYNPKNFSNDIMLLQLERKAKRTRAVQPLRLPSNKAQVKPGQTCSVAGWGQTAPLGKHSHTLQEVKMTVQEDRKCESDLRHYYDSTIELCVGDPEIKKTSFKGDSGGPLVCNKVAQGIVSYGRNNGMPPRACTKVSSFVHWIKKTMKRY
Protocol: Compounds to be tested as inhibitors were manually prepared in a 2-fold serial dilutions in DMSO, spanning 200 uM to 0.39 uM in a Labcyte Echo qualified low dead volume 384-well plate. Then an ECHO acoustic liquid handler was used to dispense 125 nL of each compound from 384-well plate into a PerkinElmer Proxiplate-384 Plus F assay plate. For the positive control of inhibitor, (S)-3-((3S,6S)-3-((2S,3S)-2-acetamido-3-methylpentanamido)-4-oxo-1,2,3,4,6,7-hexahydroazepino[3,2,1-hi]indole-6-carboxamido)-4-oxobutanoic acid (see C. A. Willoughby et al./Bioorg. Med. Chem. Lett. 12 (2002) 2197-2200 2199) was used at 2 uM assay concentration. For no inhibition control, DMSO was used. Each compound was run in duplicate.
Once the compounds were dispensed in the plates, enzyme mix and substrate mix were prepared. Enzyme mix was prepared by preparing a mixture of 300 uL granzyme B (final concentration 8 nM) and 10.8 mL of assay buffer (from Sigma kit). Substrate mix was prepared by combining 500 uL substrate (from Sigma kit) and 3 mL of assay buffer (from Sigma kit). Enzyme mixture was loaded on BioRaptr and 9.25 uL were added to each well of the assay plate containing compounds. The plate was incubated at room temperature under a metal gasket cover for 30 minutes. Subsequently, 3.125 uL of substrate mix were added to each well using the BioRaptr, reaching a final assay volume of 12.5 uL, and the plate was monitored using a Pherastar FS by 1 read per minute for 30 minutes in fluorescence mode, excitation wavelength is 400 nm and emission wavelength is 510 nm.
The data analysis was performed first in excel, where the slopes of the measured fluorescence from each sample were determined using MARS software from BMG LABTECH. These rates were then multiplied by 10,000 for visualization purposes. The rates, multiplied by 10,000, were normalized to 0% and 100% activity based on the average values of the samples with either 2 uM inhibitor (S)-3-((3S,6S)-3-((2S,3S)-2-acetamido-3-methylpentanamido)-4-oxo-1,2,3,4,6,7-hexahydroazepino[3,2,1-hi]indole-6-carboxamido)-4-oxobutanoic acid, or no inhibitor respectively. All samples were then normalized against these values using the formula={100−[(sample−100% inhib)/0% inhib]}*100 to achieve a normalized percent inhibition. Normalized percent inhibition versus concentration inhibitor was then plotted in Graphpad Prism version 9.0.0 and a variable slope (four parameters) fit was calculated for each inhibitor.

[2] = biological target: human Granzyme B (hGranzyme B) (Homo sapiens, UniProt P10144); assay: Surface plasmon resonance (SPR) binding kinetics to hGranzyme B; settings: 25° C., 1:1 binding model, KD=kd/ka; read-out: Granzyme B SPR Kd
In short: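 Biotinylated hGranzyme B captured on streptavidin chip (~1100 RU), reference-spot subtracted. Single-cycle kinetics at 25 °C in HBS-EP+ with 2% DMSO: five 3-fold peptide concentrations, 0.01–1 µM, 120 s association, 900 s dissociation. Fit to a 1:1 model for ka and kd, with KD = kd/ka.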

[3] = rhesus monkey, in vivo
Protocol: Healthy non-human primate: A 3 h dynamic PET/CT scan was performed in a healthy male rhesus monkey to determine whole body biodistribution and clearance properties in an additional species. Approximately 6 mCi of ^18F-labeled anti-granzyme-B peptide was intravenously injected in the animal. Attenuation correction was performed using low-dose CT scan. Regions of interests (ROI) were manually drawn over tissues of interest to determine mean standardized uptake value (SUVmean).

[4] = biological target: T1, human Granzyme B (human, UniProt P10144 21-247); assay: cell-based or functional assay
T1 sequence (P10144 21-247 limits assumed): as the sequence (P10144 21-247) above

[5] = biological target: T1, human Granzyme B; assay: SPR, Biacore 8k+, hGranzyme B captured on SA chip, single cycle kinetics, 1:1 model

Row | Molecule | IC50 [1] [nM] | Human Granzyme B IC50 (fluorogenic substrate enzyme inhibition assay) [4] [nM] | Kd [5] [nM] | other results
1 | C[C@@H](O)[C@@H]1NC(=O)[C@H](CC(=O)O)NC(=O)[C@@H]2C[C@@H](F)CN2C(=O)[C@H](CO)NC(=O)[C@H](CCC(N)=O)NC(=O)[C@H](CC(=O)O)NC(=O)[C@H](CCC(=O)O)NC(=O)[C@H](Cc2ccccc2)NC(=O)[C@H](CC(N)=O)NC(=O)[C@H](Cc2ccccc2)NC(=O)CSC[C@@H](C(=O)NCC(=O)NCC(=O)N[C@@H](CCCCNC(=S)Nc2ccc(CC3CN(CC(=O)O)CCN(CC(=O)O)CCN3CC(=O)O)cc2)C(N)=O)NC(=O)[C@@H]2CCCN2C(=O)[C@H](CCC(N)=O)NC(=O)[C@H](Cc2c[nH]c3ccccc23)NC1=O (single isomer, unassigned) [Compound 12a, *F.N.F.E.D.Q.S.Prot4F.D.T.W.Q.P.*C.G.G.K(NOTA-1).NH2] | < 8 | – | – | –
2 | C[C@@H]1NC(=O)[C@H](CO)NC(=O)[C@H](CCC(N)=O)NC(=O)[C@H](CC(=O)O)NC(=O)[C@H](CCC(=O)O)NC(=O)[C@H](Cc2ccccc2)NC(=O)[C@H](CC(N)=O)NC(=O)[C@H](Cc2ccccc2)NC(=O)CSC[C@@H](C(=O)NCC(N)=O)NC(=O)[C@@H]2CCCN2C(=O)[C@H](CCC(N)=O)NC(=O)[C@H](Cc2c[nH]c3ccccc23)NC(=O)[C@H]([C@@H](C)O)NC(=O)[C@H](CC(=O)O)NC1=O [Compound 1a, *F.N.F.E.D.Q.S.A.D.T.W.Q.P.*C.G.NH2] ({CH2CO}-FNFEDQSADTWQPCG-NH2; thioether N-14) | < 8 | – | – | –
3 | C[C@@H]1NC(=O)[C@H](CO)NC(=O)[C@H](CCC(N)=O)NC(=O)[C@H](CC(=O)O)NC(=O)[C@H](CCC(=O)O)NC(=O)[C@H](Cc2ccccc2)NC(=O)[C@H](CC(N)=O)NC(=O)[C@H](Cc2ccccc2)NC(=O)CSC[C@@H](C(=O)NCC(=O)NCC(=O)N[C@@H](CCCCNC(=S)Nc2ccc(CC3CN(CC(=O)O)CCN(CC(=O)O)CCN3CC(=O)O)cc2)C(N)=O)NC(=O)[C@@H]2CCCN2C(=O)[C@H](CCC(N)=O)NC(=O)[C@H](Cc2c[nH]c3ccccc23)NC(=O)[C@H]([C@@H](C)O)NC(=O)[C@H](CC(=O)O)NC1=O (stereo partly drawn) [Compound 2a, *F.N.F.E.D.Q.S.A.D.T.W.Q.P.*C.G.G.K(NOTA-1).NH2] ({CH2CO}-FNFEDQSADTWQPCGGK(X1)-NH2; thioether N-14) | < 8 | – | – | –
4 | C[C@@H]1NC(=O)[C@H](CO)NC(=O)[C@H](CCC(N)=O)NC(=O)[C@H](CC(=O)O)NC(=O)[C@H](CCC(=O)O)NC(=O)[C@H](Cc2ccccc2)NC(=O)[C@H](CC(N)=O)NC(=O)[C@H](Cc2ccccc2)NC(=O)CSC[C@@H](C(=O)NCC(=O)NCC(=O)N[C@@H](CCCCNC(=O)CCOCCOCCC(=O)NCCCC[C@H](NC(=O)CNC(=O)CNC(=O)[C@@H]2CSCC(=O)N[C@@H](Cc3ccccc3)C(=O)N[C@@H](CC(N)=O)C(=O)N[C@@H](Cc3ccccc3)C(=O)N[C@@H](CCC(=O)O)C(=O)N[C@@H](CC(=O)O)C(=O)N[C@@H](CCC(N)=O)C(=O)N[C@@H](CO)C(=O)N[C@@H](C)C(=O)N[C@@H](CC(=O)O)C(=O)N[C@@H]([C@@H](C)O)C(=O)N[C@@H](Cc3c[nH]c4ccccc34)C(=O)N[C@@H](CCC(N)=O)C(=O)N3CCC[C@H]3C(=O)N2)C(N)=O)C(N)=O)NC(=O)[C@@H]2CCCN2C(=O)[C@H](CCC(N)=O)NC(=O)[C@H](Cc2c[nH]c3ccccc23)NC(=O)[C@H]([C@@H](C)O)NC(=O)[C@H](CC(=O)O)NC1=O [Compound 5a, *F.N.F.E.D.Q.S.A.D.T.W.Q.P.*C.G.G.K.NH2)-PEG2-(*F.N.F.E.D.Q.S.A.D.T.W.Q.P.*C.G.G.K.NH2)] (I: {CH2CO}-FNFEDQSADTWQPCGGK-NH2 / II: {CH2CO}-FNFEDQSADTWQPCGGK-NH2; linker I:17-II:17 via X2; thioether I:N-I:14, II:N-II:14) | < 8 | – | – | Kd [2]: < 0.3 nM
5 | C[C@@H](O)[C@@H]1NC(=O)[C@H](CC(=O)O)NC(=O)[C@@H]2C[C@@H](F)CN2C(=O)[C@H](CO)NC(=O)[C@H](CCC(N)=O)NC(=O)[C@H](CC(=O)O)NC(=O)[C@H](CCC(=O)O)NC(=O)[C@H](Cc2ccccc2)NC(=O)[C@H](CC(N)=O)NC(=O)[C@H](Cc2ccccc2)NC(=O)CSC[C@@H](C(=O)NCC(=O)NCC(=O)N[C@@H](CCCCNC(=S)Nc2ccc(CC3CN(CC(=O)O)CCN(CC(=O)O)CCN3CC(=O)O)cc2)C(N)=O)NC(=O)[C@@H]2CCCN2C(=O)[C@H](CCC(N)=O)NC(=O)[C@H](Cc2c[nH]c3ccccc23)NC1=O (stereo partly drawn) [Compound 19a, *F.N.F.E.D.Q.S.Prot4F.D.T.W.Q.P.*C.G.G.K(^68Ga-NOTA-1).NH2, metal not drawn] | – | – | – | route of clearance [3]: primarily cleared through renal excretion; tissues of highest uptake [3]: highest uptake observed in urine/urinary bladder and kidney
6 | C[C@@H](O)[C@@H]1NC(=O)[C@H](CC(=O)O)NC(=O)[C@@H]2CCCN2C(=O)[C@H](CO)NC(=O)[C@H](CCC(N)=O)NC(=O)[C@H](CC(=O)O)NC(=O)[C@H](CCC(=O)O)NC(=O)[C@H](Cc2ccccc2)NC(=O)[C@H](CC(N)=O)NC(=O)[C@H](Cc2ccccc2)NC(=O)CSC[C@@H](C(=O)NCC(N)=O)NC(=O)[C@@H]2CCCN2C(=O)[C@H](CCC(N)=O)NC(=O)[C@H](Cc2c[nH]c3ccccc23)NC1=O [Compound 25a, *F.N.F.E.D.Q.S.P.D.T.W.Q.P.*C.G.NH2] ({CH2CO}-FNFEDQSPDTWQPCG-NH2; thioether N-14) | < 8 | – | – | –
7 | C[C@@H](O)[C@@H]1NC(=O)[C@H](CC(=O)O)NC(=O)[C@@H]2C[C@@H](F)CN2C(=O)[C@H](CO)NC(=O)[C@H](CCC(N)=O)NC(=O)[C@H](CC(=O)O)NC(=O)[C@H](CCC(=O)O)NC(=O)[C@H](Cc2ccccc2)NC(=O)[C@H](CC(N)=O)NC(=O)[C@H](Cc2ccccc2)NC(=O)CSC[C@@H](C(=O)NCC(N)=O)NC(=O)[C@@H]2CCCN2C(=O)[C@H](CCC(N)=O)NC(=O)[C@H](Cc2c[nH]c3ccccc23)NC1=O [Compound 38a, *F.N.F.E.D.Q.S.Prot4F.D.T.W.Q.P.*C.G.NH2] ({CH2CO}-FNFEDQS[Pro(trans-4-F)]DTWQPCG-NH2; thioether N-14) | < 8 | – | – | –
8 | B1 | – | < 8 | 1.6 | –
9 | B2 | – | < 8 | 13.5 | –
10 | B3 | – | < 8 | 19.8 | –
